What all share (conditions): both partners purified
In assay [1] the target is T1, SOCS2-ElonginB-ElonginC complex, wild-type (human | , UniProt O14508 32-198; Q15370 1-104; Q15369 17-112). As to the kind of experiment: 19F ligand-observed CPMG NMR displacement assay; peptide (GHR 10 μM, EpoR 50 μM) displaces the fluorinated pY analog spy molecule 3 (100 μM) from SBC (5 μM); 20 mM HEPES pH 8, 50 mM NaCl, 1 mM DTT, 20% D2O, 298 K.
T1 sequence (O14508 32-198, chain 1 of 3): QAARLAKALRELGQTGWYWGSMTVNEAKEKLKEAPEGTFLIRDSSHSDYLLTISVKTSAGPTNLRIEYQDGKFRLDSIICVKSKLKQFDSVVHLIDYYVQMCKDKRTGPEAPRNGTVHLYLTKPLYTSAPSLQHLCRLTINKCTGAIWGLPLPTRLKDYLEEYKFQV
T1 sequence (Q15370 1-104, chain 2 of 3): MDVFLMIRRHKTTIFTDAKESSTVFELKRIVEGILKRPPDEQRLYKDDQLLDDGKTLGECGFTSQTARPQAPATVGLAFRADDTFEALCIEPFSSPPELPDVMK
T1 sequence (Q15369 17-112, chain 3 of 3): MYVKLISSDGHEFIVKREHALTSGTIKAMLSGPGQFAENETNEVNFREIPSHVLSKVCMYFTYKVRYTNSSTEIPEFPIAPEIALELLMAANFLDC
Assay [2] addresses T1, SOCS2-ElonginB-ElonginC complex, …. As to the kind of experiment: SPR; biotinylated SBC (wild-type or mutant) immobilised, peptide injected at 0.08-60 μM; 20 mM HEPES pH 7.5, 150 mM NaCl, 1 mM TCEP, 0.005% Tween20, 10 °C; steady-state affinity, 1:1 model. Background: SPR reads the build-up and loss of mass on a sensor chip optically.
The target of assay [3] is T2, SOCS2(L106V)-ElonginB-ElonginC complex (human | , UniProt O14508 32-198; Q15370 1-104; Q15369 17-112, L106V).
T2 construct: also called SBC L106V; source: E. coli BL21(DE3), co-expressed, purified (as wild-type SBC); not shown: His6, N-terminal, cleaved; copies: + +
Described as above.

Assay [4] concerns the target T3, SOCS2(C133Y)-ElonginB-ElonginC complex (human | , UniProt O14508 32-198; Q15370 1-104; Q15369 17-112, C133Y).
T3 construct: also called SBC C133Y; source: E. coli BL21(DE3), co-expressed, purified (as wild-type SBC); not shown: His6, N-terminal, cleaved; copies: + +
The assay is described as above.

Assay [5] deals with T4, SOCS2-ElonginB-ElonginC complex, wild-type (human | , UniProt O14508 32-198; Q15370 1-104; Q15369 17-112).
T4 construct: Untagged in ITC and NMR; also called SBC; wild-type SBC; source: E. coli BL21(DE3), co-expressed, purified (HisTrap, TEV cleavage, second HisTrap, SEC Superdex 75); not shown: His6, N-terminal, cleaved; copies: + +
The assay is described as above.
T4 sequence (O14508 32-198, chain 1 of 3): as the sequence (O14508 32-198, chain 1 of 3) above
T4 sequence (Q15370 1-104, chain 2 of 3): as the sequence (Q15370 1-104, chain 2 of 3) above
T4 sequence (Q15369 17-112, chain 3 of 3): as the sequence (Q15369 17-112, chain 3 of 3) above

Assay [6] has as its target T4, SOCS2-ElonginB-ElonginC complex, …. As to the kind of experiment: ITC; peptide (750 or 1500 μM) titrated into SBC (50 μM); 100 mM HEPES pH 7.5, 50 mM NaCl, 0.5 mM TCEP, 298 K; one-set-of-site model. In general terms: In ITC the heat of successive injections is recorded.

These results are taken from article PMC6557900 (Nature Communications, 2019).

Where no end group is shown, it is not given here. [ ]: non-standard residue; d: D form. pY = N[C@@H](Cc1ccc(OP(=O)(O)O)cc1)C(=O)O

T3 sequence (O14508 32-198 C133Y, chain 1 of 3): as the sequence (O14508 32-198, chain 1 of 3) above, with C102Y counted along it
T3 sequence (Q15370 1-104, chain 2 of 3): as the sequence (Q15370 1-104, chain 2 of 3) above
T3 sequence (Q15369 17-112, chain 3 of 3): as the sequence (Q15369 17-112, chain 3 of 3) above
T2 sequence (O14508 32-198 L106V, chain 1 of 3): as the sequence (O14508 32-198, chain 1 of 3) above, with L75V counted along it
T2 sequence (Q15370 1-104, chain 2 of 3): as the sequence (Q15370 1-104, chain 2 of 3) above
T2 sequence (Q15369 17-112, chain 3 of 3): as the sequence (Q15369 17-112, chain 3 of 3) above

The Ki is a measure of affinity in units of concentration, obtained from inhibition or displacement. Low readings indicate higher affinity, high ones lower affinity. In general, Kd refers to the free concentration of one partner at which half of the binding sites on the other are occupied at equilibrium, for simple one-to-one binding. Read a low Kd as a tighter complex. As for ASFE[pY]TILDAS-NH2 [EpoR_pY426 peptide, alanine at pY(+5)], affinity in assay [1] was put at a Ki of 6.9 µM. The same molecule returned a Kd in assay [2] of 8.9 µM.

In turn, ASFE[pY]TILAPS-NH2 [EpoR_pY426 peptide, alanine at pY(+4)] had a Ki in assay [1] of 14.1 µM. Also, in assay [2], binding was characterised by a dissociation constant (Kd) of 18 µM.

As for PVPD[pY]ASIHIV-NH2 [GHR_pY595 peptide, alanine at pY(+1)], affinity in assay [1] was put at a Ki of 0.5 µM. The Kd in assay [2] was 1 µM.

In assay [1], PYPD[pY]TSIHIV-NH2 [GHR_pY595 peptide V(−3)Y] had a Ki of 3.3 µM. Further, binding in assay [2] was characterised by a dissociation constant (Kd) of 3.3 µM.

In turn, PVPD[pY]TSIHIA-NH2 [GHR_pY595 peptide, alanine at pY(+6)] had a Kd in assay [2] of 1.9 µM.

Consider ASFE[pY]TIADPS-NH2 [EpoR_pY426 peptide, alanine at pY(+3)], for which, in assay [1], the inhibition constant Ki amounted to 20.4 µM. The molecule also returned a Kd in assay [2] of 32.3 µM.

PRPD[pY]TSIHIV-NH2 [GHR_pY595 peptide V(−3)R]: in assay [1], the affinity corresponds to a Ki of 20.6 µM. The molecule further had a Kd in assay [2] of 9 µM.

B1: EpoR_pY426 peptide, alanine at pY(+6) (peptide)
chain: ASFE[pY]TILDPA-NH2
modifications: N-terminus assumed
SMILES: CC[C@H](C)[C@H](NC(=O)[C@@H](NC(=O)[C@H](Cc1ccc(OP(=O)(O)O)cc1)NC(=O)[C@H](CCC(=O)O)NC(=O)[C@H](Cc1ccccc1)NC(=O)[C@H](CO)NC(=O)[C@H](C)N)[C@@H](C)O)C(=O)N[C@@H](CC(C)C)C(=O)N[C@@H](CC(=O)O)C(=O)N1CCC[C@H]1C(=O)N[C@@H](C)C(N)=O
As to B1, the affinity in assay [1] corresponds to a Ki of 11.3 µM. For the same molecule, the affinity in assay [2], expressed as Kd, was 16.4 µM.

B2: EpoR_pY426 peptide, alanine at pY(+1) (peptide)
chain: ASFE[pY]AILDPS-NH2
modifications: N-terminus assumed
SMILES: CC[C@H](C)[C@H](NC(=O)[C@H](C)NC(=O)[C@H](Cc1ccc(OP(=O)(O)O)cc1)NC(=O)[C@H](CCC(=O)O)NC(=O)[C@H](Cc1ccccc1)NC(=O)[C@H](CO)NC(=O)[C@H](C)N)C(=O)N[C@@H](CC(C)C)C(=O)N[C@@H](CC(=O)O)C(=O)N1CCC[C@H]1C(=O)N[C@@H](CO)C(N)=O
B2 registered a Ki in assay [1] of 10.3 µM. In assay [2], the Kd was found to be 17.1 µM.

For the molecule ASFE[pY]TALDPS-NH2 [EpoR_pY426 peptide, alanine at pY(+2)], the Ki in assay [1] was 17.2 µM. This molecule gave a Kd in assay [2] of 30.8 µM.

In turn, PVPD[pY]TSAHIV-NH2 [GHR_pY595 peptide, alanine at pY(+3)] showed a Ki in assay [1] of 3.4 µM. The Kd in assay [2] was 3.7 µM.

In assay [1], ASFA[pY]TILDPS-NH2 [EpoR_pY426 peptide, alanine at pY(−1)] came in with a Ki of 23.5 µM. Further, the Kd in assay [2] amounted to 21.7 µM.

Consider PAPD[pY]TSIHIV-NH2 [GHR_pY595 peptide, alanine at pY(−3)], for which the Ki in assay [1] stood at 3.4 µM.

With PVPD[pY]TSIAIV-NH2 [GHR_pY595 peptide, alanine at pY(+4)], the Ki in assay [1] came out at 18.5 µM. The molecule also had a Kd in assay [2] of 6.7 µM.

B3: GHR_pY487 phosphopeptide (growth hormone receptor) (peptide)
peptide: NIDF[pY]AQVSDI-NH2
notes: growth hormone receptor (GHR), 11-residue peptide around pY487; source: synthetic peptide (solid-phase, Fmoc, Rink amide resin), HPLC purified
With B3, the Kd in assay [3] was 8.9 µM; in assay [4], 7.7 µM; in assay [5], 5.1 µM; in assay [6], 2.3 µM.
